System: TL-3

FIV protease (Feline Immunodeficiency Virus protease)
enzymatic reaction activity in a kinetic FRET assay with a fluorogenic substrate peptide over a 20 minute time course: the enzymatic activity was blocked by TL-3
